Biological target: Bub1p fusion to the Gal4 DNA binding domain (budding yeast) (UniProt P41695)
Test: two-hybrid

UniProt P41695, sequence (P41695 whole entry, the tested form may be a part): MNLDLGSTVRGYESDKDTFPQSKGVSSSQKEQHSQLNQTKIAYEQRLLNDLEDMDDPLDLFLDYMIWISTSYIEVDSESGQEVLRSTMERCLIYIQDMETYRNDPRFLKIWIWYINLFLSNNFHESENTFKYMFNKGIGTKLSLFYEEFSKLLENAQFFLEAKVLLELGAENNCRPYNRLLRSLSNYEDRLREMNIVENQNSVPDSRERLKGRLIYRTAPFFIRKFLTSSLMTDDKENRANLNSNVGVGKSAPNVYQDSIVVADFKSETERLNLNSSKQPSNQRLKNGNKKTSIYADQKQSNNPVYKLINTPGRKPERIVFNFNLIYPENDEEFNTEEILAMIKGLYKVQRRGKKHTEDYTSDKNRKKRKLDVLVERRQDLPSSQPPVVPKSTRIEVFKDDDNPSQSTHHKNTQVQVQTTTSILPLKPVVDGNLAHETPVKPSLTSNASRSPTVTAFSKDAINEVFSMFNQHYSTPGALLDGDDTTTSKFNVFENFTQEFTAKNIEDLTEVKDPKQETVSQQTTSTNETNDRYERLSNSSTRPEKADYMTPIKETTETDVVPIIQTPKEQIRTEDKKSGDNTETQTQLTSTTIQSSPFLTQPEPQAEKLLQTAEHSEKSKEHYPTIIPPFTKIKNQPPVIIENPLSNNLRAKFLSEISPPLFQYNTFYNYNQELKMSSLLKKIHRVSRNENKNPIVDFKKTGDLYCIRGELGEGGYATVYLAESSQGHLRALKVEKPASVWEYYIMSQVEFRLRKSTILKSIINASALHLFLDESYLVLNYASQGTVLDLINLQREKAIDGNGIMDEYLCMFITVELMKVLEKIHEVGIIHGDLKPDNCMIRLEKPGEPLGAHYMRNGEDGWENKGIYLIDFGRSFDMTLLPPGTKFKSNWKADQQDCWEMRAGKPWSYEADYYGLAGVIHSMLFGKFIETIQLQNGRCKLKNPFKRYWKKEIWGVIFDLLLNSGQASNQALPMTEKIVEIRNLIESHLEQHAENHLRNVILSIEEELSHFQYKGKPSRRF

| β-galactosidase activity (two-hybrid) [Miller units] | Binder |
| --- | --- |
| 100 | Cdc20p fusion to the transcriptional activation domain (natural protein) MPESSRDKGNAAISGNRSVLSIASPTKLNILSSDWSRNQGKVSKNSLKRSSSLNIRNSKRPSLQASANSIYSRPKITIGAPPLIRRDSSFFKDEFDAKKDKATFSAYSSRSYPTIGSESVVSQTSLSQPTTSREVDEQFTVAADRYIPILQGASQNKVDPETLHEALPPPNASPISHLRAQTKIVFKQNVAEACGLDMNKRILQYMPEPPKCSSLRQKSYIMKKRTHYSYQQEQKIPDLIKLRKINTNPERILDAPGFQDDFYLNLLSWSKKNVLAIALDTALYLWNATTGDVSLLTDFENTTICSVTWSDDDCHISIGKEDGNTEIWDVETMSLIRTMRSGLGVRIGSLSWLDTLIATGSRSGEIQINDVRIKQHIVSTWAEHTGEVCGLSYKSDGLQLASGGNDNTVMIWDTRTSLPQFSKKTHTAAVKALSWCPYSPNILASGGGQTDKHIHFWNSITGARVGSINTGSQVSSLHWGQSHTSTNGGMMNKEIVATGGNPENAISVYNYETKFKVAEVVHAHEARICCSQLSPDGTTLATVGGDENLKFYKIFDPRCTGRSREDGLMDGMLGLIGKEGCRTNDKENRSKNSSEIHTRRPSSTSQYLIR |
| 55 | Bub3p fusion to the transcriptional activation domain (natural protein) MQIVQIEQAPKDYISDIKIIPSKSLLLITSWDGSLTVYKFDIQAKNVDLLQSLRYKHPLLCCNFIDNTDLQIYVGTVQGEILKVDLIGSPSFQALTNNEANLGICRICKYGDDKLIAASWDGLIEVIDPRNYGDGVIAVKNLNSNNTKVKNKIFTMDTNSSRLIVGMNNSQVQWFRLPLCEDDNGTIEESGLKYQIRDVALLPKEQEGYACSSIDGRVAVEFFDDQGDDYNSSKRFAFRCHRLNLKDTNLAYPVNSIEFSPRHKFLYTAGSDGIISCWNLQTRKKIKNFAKFNEDSVVKIACSDNILCLATSDDTFKTNAAIDQTIELNASSIYIIFDYEN |

From paper PMC2174553
